Patent publication US8338123B2, “Food production process” (DSM IP Assets B.V., priority 2002, dated 2012)

How the values were obtained:
humans = details: life-long exposure, daily uptake 1.6 ug acrylamide/kg; cited from earlier work
[1] = substrate: NC(=O)C[C@H](N)C(=O)O; experiment: purified protein, by the assay type; details: other: substrate L-asparagine, pH 5.5, 37° C.

Molecule | cancer risk (humans) | Km [1] [µM] | Vmax [1] [µmol/min/mg]
C=CC(N)=O [acrylamide] | 7*10^−3 |  | 
Aspergillus niger asparaginase ASPA01, SEQ ID NO: 3 (Aspergillus niger CBS 513.88) (protein) SPLLYSRTTNETFVFTNANGLNFTQMNTTLPNVTIFATGGTIAGSDSSSTATTGYTSGAVGVLSLIDAVPSMLDVANVAGVQVANVGSEDITSDILISMSKKLNRVVCEDPTMAGAVITHGTDTLEETAFFLDATVNCGKPIVIVGAMRPSTAISADGPFNLLEAVTVAASTSARDRGAMVVMNDRIASAYYVTKTNANTMDTFKAMEMGYLGEMISNTPFFFYPPVKPTGKVAFDITNVTEIPRVDILFSYEDMHNDTLYNAISSGAQGIVIAGAGAGGVTTSFNEAIEDVINRLEIPVVQSMRTVNGEVPLSDVSSDTATHIASGYLNPQKSRILLGLLLSQGKNITEIADVFALGTDA |  | 2400 ± 300 | 1100
